Test results reported in patent US20200165324A1.
Where a chain is given by its changes, count along the chain named.

B1: germline PG9 HC (NC-Cow1 VH CDR3) + mature PG9 LC (antibody)
VH: QVQLVESGGGVVQPGRSLRLSCAASGFTFSSYGMHWVRQAPGKGLEWVAVISYDGSNKYYADSVKGRFTISRDNSKNTLYLQMNSLRAEDTAVYYCITAHQKTNKKECPEDYTYNPRCPQQYGWSDCDCMGDRFGGYCRQDGCSNYIHRSTYEWYVSAWGKGTTVTVSS
VL: QSALTQPASVSGSPGQSITISCNGTSNDVGGYESVSWYQQHPGKAPKVVIYDVSKRPSGVSNRFSGSKSGNTASLTISGLQAEDEGDYYCKSLTSTRRRVFGTGTKLTVL
B2: NC-Cow1 (antibody)
VH: QVQLRESGPSLMKPSQTLSLTCTVSGSSLNDKSVGWVRQAPGKALQWLGSVDTSGNTDYNPGLKSRLSITKDNSKSRISLTVTGMTTEDSATYYCITAHQKTNKKECPEDYTYNPRCPQQYGWSDCDCMGDRFGGYCRQDGCSNYIHRSTYEWYVSAWGQGLLVTVSS
VL: SYELTQPSSVSGSLGQRVSVTCSGSSSNVGNGYVSWYQLIPGSAPRTIIYGDTSRASGVPERFSGSRSGNTATLTISSLQAEDEADFFCASPDDSSSNAVFGSGTTLTVL
B3: NC-Cow7 (antibody)
VH: KVQLRESGPSLVKPFETLSLTCTGSGFSLSDKAAGWVRQAPGKAPEWLGSIDTGGNTGYNPGLKYRLSITKDNSKSQVSLSVSSMTSEDSATYYCTTVHQKAYKKVCPDDYSSNPDCVRLYGWSHCDCMRDSFGGWCRADGCSSTVEIGPYEWYVNAWGQGLLVTVSS
VL: B2 VL with S1Q, Y2A, E3V, V20I, T47S, I48L, E61D, F87Y, D93E, A99G
B4: NC-Cow2 (antibody)
VH: KVQLRESGPSLVKPSQTLSLTCMVSGSSLSDKAVGWVRQAPGKALEWLGIISAGGNRGYNSGLRSRLTISKDNSKNEVSLRVRSVTTEDSATYFCGTVHQKTQRKPICPDGYSDDSTLRYYSRCSDRDCWRCTGTTYYDTCQCGTYTWIDTHELHVDAWGQGLLVTVSS
VL: B2 VL with S1Q, Y2A, E3V, T5N, V20I, I48L, E61D, F87Y, P92A, D93E
B5: NC-Cow5 (antibody)
VH: QVQLQESGPSLVKPSQTLSLTCMVSGFSLNDKAVGWVRQAPGKALEWLGSIDAGGSTGYNPGLKSRLSISKDNSKNQVSLSVSSVTTEDSATYYCGTVHQRTQPKQTCPNGYSDDSALRYYSRCSDRDCWRCTGTTYYDTCQCSSYTYIHTYELYVDAWGQGLLVTVSS
VL: B2 VL with S1Q, Y2D, E3V, V20I, I48L, E61D, F87Y, D93E
B6: NC-Cow4 (antibody)
VH: B5 VH with Q1K, Q5R, K32E
VL: B2 VL with S1Q, Y2A, E3V, V20I, I48L, E61D, F87Y, D93E
B7: PGV04 (antibody, from a related filing, V domains shown)
VH: QVQLVQSGSGVKKPGASVRVSCWTSEDIFERTELIHWVRQAPGQGLEWIGWVKTVTGAVNFGSPDFRQRVSLTRDRDLFTAHMDIRGLTQGDTATYFCARQKFYTGGQGWYFDLWGRGTLIVVSS
VL: EIVLTQSPGTLSLSPGETASLSCTAASYGHMTWYQKKPGQPPKLLIFATSKRASGIPDRFSGSQFGKQYTLTITRMEPEDFARYYCQQLEFFGQGTRLEIR

What was measured:
[1] = target: Env of the 12-virus indicator panel; assay: cell-based or functional assay
[2] = target: Env of the 117-virus panel (117 cross-clade virus panel); assay: cell-based or functional assay
[3] = target: stabilized BG505 SOSIP construct MD39 (HIV isolate BG505); assay: competition ELISA on MD39 vs 35022
[4] = target: stabilized BG505 SOSIP construct MD39 (HIV isolate BG505); assay: competition ELISA on MD39 vs PGT151
[5] = target: stabilized BG505 SOSIP construct MD39 (HIV isolate BG505); assay: competition ELISA on MD39 vs b12
[6] = target: stabilized BG505 SOSIP construct MD39 (HIV isolate BG505); assay: competition ELISA on MD39 vs CH103
[7] = target: stabilized BG505 SOSIP construct MD39 (HIV isolate BG505); assay: competition ELISA on MD39 vs 3BNC117
[8] = target: stabilized BG505 SOSIP construct MD39 (HIV isolate BG505); assay: competition ELISA on MD39 vs Self
[9] = target: stabilized BG505 SOSIP construct MD39 (HIV isolate BG505); assay: competition ELISA on MD39 vs PGT128
[10] = target: stabilized BG505 SOSIP construct MD39 (HIV isolate BG505); assay: competition ELISA on MD39 vs PGDM1400
[11] = target: stabilized BG505 SOSIP construct MD39 (HIV isolate BG505); assay: competition ELISA on MD39 vs VRC01
[12] = target: stabilized BG505 SOSIP construct MD39 (HIV isolate BG505); assay: competition ELISA on MD39 vs PG9
[13] = target: stabilized BG505 SOSIP construct MD39 (HIV isolate BG505); assay: competition ELISA on MD39 vs 12A12
[14] = target: stabilized BG505 SOSIP construct MD39 (HIV isolate BG505); assay: competition ELISA on MD39 vs PGT121
[15] = target: gp120 (isolate 92BR020) (HIV-1 isolate 92BR020); assay: ELISA on gp120 (isolate 92BR020), buffer pH 5.5
[16] = target: gp120 (isolate 92BR020) (HIV-1 isolate 92BR020); assay: ELISA on gp120 (isolate 92BR020), buffer pH 6

Binder | competition value [3] | competition value [4] | competition value [5] | competition value [6] | competition value [7] | competition value [8] | competition value [9] | competition value [10] | competition value [11] | competition value [12] | competition value [13] | competition value [14] | also measured
B1 | – | – | – | – | – | – | – | – | – | – | – | – | median IC50 of neutralization on the 12-virus indicator panel [1]: 0.054 µg/mL; neutralization breadth on the 12-virus indicator panel [1]: 88%
B2 | – | – | – | – | – | – | – | – | – | – | – | – | IC50, pseudovirus neutralization (BG505 N276A): 0.011 µg/mL; IC50, pseudovirus neutralization (JR-CSF P369A): 1.24 µg/mL; IC50, pseudovirus neutralization (BG505 D474A): 9 ng/mL; IC50, pseudovirus neutralization (BG505 N262A): 0.014 µg/mL; IC50, pseudovirus neutralization (JR-CSF D279A): 1.02 µg/mL; IC50, pseudovirus neutralization (JR-CSF K282A): > 50 µg/mL; IC50, pseudovirus neutralization (JR-CSF V372A): > 50 µg/mL; IC50, pseudovirus neutralization (JR-CSF M373A): 2.52 µg/mL; IC50, pseudovirus neutralization (JR-CSF D474A): 0.744 µg/mL; median IC50 of neutralization on the 12-virus indicator panel [1]: 0.007 µg/mL; neutralization breadth on the 12-virus indicator panel [1]: 100%; median IC50 of neutralization on the 117-virus panel [2]: 0.028 µg/mL; neutralization breadth on the 117-virus panel (pseudovirus, TZM-bl cells) [2]: 72%
B3 | 5 | 20 | 9 | 35 | 90 | 90 | 31 | 12 | 87 | 8 | 92 | 23 | –
B4 | 11 | 11 | 0 | 11 | 93 | 91 | 57 | 18 | 93 | 4 | 94 | 27 | –
B5 | 14 | 2 | 23 | 38 | 94 | 37 | 71 | 3 | 95 | 21 | 95 | 21 | –
B6 | 18 | 20 | 29 | 13 | 95 | 84 | 35 | 22 | 94 | 7 | 95 | -11 | –
B7 | – | – | – | – | – | – | – | – | – | – | – | – | EC50 (read off the curve) [15]: 0.2 µg/mL; EC50 (read off the curve) [16]: 0.2 µg/mL
